Laboratory results reported in patent US20220064329A1 (Novo Nordisk, published 2022).
Where a chain is given by its changes, count along the chain named.

Key:
Test in all cases: SPR, Biacore T200, 25 C; FVII(a) variant captured on anti-Gla Ab 4F6, mAb0842(OA) injected
[1] = target: T1, FVII(a) variant T185A (human, UniProt P08709 61-466)
T1 construct: hFVII alanine variant in cell culture supernatant
T1 sequence: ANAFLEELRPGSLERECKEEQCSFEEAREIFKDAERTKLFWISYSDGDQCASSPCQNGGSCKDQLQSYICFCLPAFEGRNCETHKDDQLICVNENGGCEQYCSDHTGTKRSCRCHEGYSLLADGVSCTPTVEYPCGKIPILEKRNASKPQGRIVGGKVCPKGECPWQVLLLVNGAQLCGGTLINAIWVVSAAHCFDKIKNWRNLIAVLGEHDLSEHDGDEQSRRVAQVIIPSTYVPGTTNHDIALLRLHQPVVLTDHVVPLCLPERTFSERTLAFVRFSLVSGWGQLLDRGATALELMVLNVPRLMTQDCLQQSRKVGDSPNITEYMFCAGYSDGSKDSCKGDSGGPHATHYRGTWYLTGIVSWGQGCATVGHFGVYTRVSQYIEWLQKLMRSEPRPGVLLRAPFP
Experimental: (§1) The running buffer was prepared by diluting 10-fold the 10×HBS-P buffer (supplied by GE Healthcare) and supplemented with 1 mg/ml BSA and 5 mM CaCl2 to give 10 mM HEPES, 150 mM NaCl, 0.05% v/v Polysorbate 20, pH 7.4, 5 mM CaCl2, 1 mg/ml bovine serum albumin (BSA). […] Regeneration of the chip was achieved using 10 mM HEPES, 150 mM NaCl, 20 mM EDTA, 0.05 v/v Polysorbate 20, pH 7.4. Binding data were analysed according to a 1:1 Kinetic model and steady state analysis using BiaEvaluation 4.1 supplied by the manufacturer (Biacore AB, Uppsala, Sweden). Wherever possible, ka, kd and KD values from 1:1 kinetic fitting model are reported. […] An amino acid residue is considered a hot-spot residue if substitution of that amino acid residue with alanine results in an affinity reduction of ten (10) fold or more relative to the wild type.

[2] = target: T2, FVII(a) variant V252A (human, UniProt P08709 61-466)
T2 construct: hFVII alanine variant in cell culture supernatant
T2 sequence: T1 sequence with A185T, V252A
Experimental: as §1

[3] = target: T3, FVII(a) variant M391A (human, UniProt P08709 61-466)
T3 construct: hFVII alanine variant in cell culture supernatant
T3 sequence: T1 sequence with A185T, M391A
Experimental: as §1

[4] = target: T4, FVII(a) variant E116A (human, UniProt P08709 61-466)
T4 construct: hFVII alanine variant in cell culture supernatant
T4 sequence: T1 sequence with E116A, A185T
Experimental: as §1

[5] = target: T5, FVII(a) variant L120A (human, UniProt P08709 61-466)
T5 construct: hFVII alanine variant in cell culture supernatant
T5 sequence: T1 sequence with L120A, A185T
Experimental: as §1

Kd [1]: 1.01 nM
Kd [2]: 0.28 nM
Kd [3]: 0.25 nM
Kd [4]: 0.5 nM
Kd [5]: 0.6 nM
B1: mAb0842(OA) (antibody, human IgG4 S228P, kappa)
heavy: QVQLQESGPGLVKPSQTLSLTCTVSGYSISSDSAWSWIRQPPGKGLEWIGYIQYSGSTNYNPSLKSRVTISRDTSKNQFSLKLSSVTAADTAVYYCARSVNYYGNSFAVGYWGQGTLVTVSSASTKGPSVFPLAPCSRSTSESTAALGCLVKDYFPEPVTVSWNSGALTSGVHTFPAVLQSSGLYSLSSVVTVPSSSLGTKTYTCNVDHKPSNTKVDKRVESKYGPPCPPCPAPEFLGGPSVFLFPPKPKDTLMISRTPEVTCVVVDVSQEDPEVQFNWYVDGVEVHNAKTKPREEQFNSTYRVVSVLTVLHQDWLNGKEYKCKVSNKGLPSSIEKTISKAKGQPREPQVYTLPPSQEEMTKNQVSLSCAVKGFYPSDIAVEWESNGQPENNYKTTPPVLDSDGSFFLVSRLTVDKSRWQEGNVFSCSVMHEALHNHYTQKSLSLSLGK
light: EIVLTQSPATLSLSPGERATLSCRASQGISDYLHWYQQKPGEAPRLLIKYTSQPATGIPARFSGSGSGTDFTLTISSLEPEDFAVYYCQNGHSFPLTFGQGTKLEIKRTVAAPSVFIFPPSDEQLKSGTASVVCLLNNFYPREAKVQWKVDNALQSGNSQESVTEQDSKDSTYSLSSTLTLSKADYEKHKVYACEVTHQGLSSPVTKSFNRGEC
chain: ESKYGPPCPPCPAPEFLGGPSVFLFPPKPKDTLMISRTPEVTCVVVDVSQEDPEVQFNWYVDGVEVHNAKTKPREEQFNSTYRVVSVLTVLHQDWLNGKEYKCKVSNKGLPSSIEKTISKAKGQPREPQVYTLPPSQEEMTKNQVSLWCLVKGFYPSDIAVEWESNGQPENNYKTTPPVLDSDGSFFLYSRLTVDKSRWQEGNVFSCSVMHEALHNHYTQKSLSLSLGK
notes: also called monovalent humanized 11F2 antibody; one-armed anti-FVII(a) antibody
